# B1: Ref_Alexa488 (dsDNA)
# DNA 1: GGACATGTCCGGACATGTCC
# DNA 2: GGACATGTCCGGACATGTCC
# Biological target: T1, Drp53 (Danio rerio, UniProt P79734 1-373)
# T1 sequence: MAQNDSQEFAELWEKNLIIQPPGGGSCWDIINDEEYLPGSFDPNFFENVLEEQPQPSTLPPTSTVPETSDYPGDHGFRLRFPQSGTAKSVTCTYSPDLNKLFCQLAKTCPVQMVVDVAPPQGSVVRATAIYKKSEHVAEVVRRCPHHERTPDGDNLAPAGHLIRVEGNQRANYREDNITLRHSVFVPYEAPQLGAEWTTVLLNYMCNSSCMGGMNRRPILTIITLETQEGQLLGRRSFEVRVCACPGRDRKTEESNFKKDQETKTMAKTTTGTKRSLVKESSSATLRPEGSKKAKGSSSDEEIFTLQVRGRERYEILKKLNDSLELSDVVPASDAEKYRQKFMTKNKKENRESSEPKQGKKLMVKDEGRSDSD
# Assay: fluorescence anisotropy, direct; 25 mM NaPi, 225 mM NaCl, 10% v/v glycerol, 5 mM DTT, 0.2 mg/mL BSA, 22°C; 20 nM labelled DNA; pH not stated for the binding assay
# Conditions: protein: recombinant; tags: N-terminal 6xHis-lipoyl-TEV tag, cleaved; chain copies: 4; label: 5'-Alexa488
binder,measurement,value
B1,Kd,-7.2 ± 0.03 log10(M)
